Results on 20 sequences are retold here after the DeepSol protein solubility set.

This series is described as follows: soluble on expression in E. coli; label from the status in PepcDB or PDB records.
As to “MLDYFFNPKGIAVIGASNDPKKLGYEVFKNLKEYKKGKVYPVNIKEEEVQGVKAYKSVKDIPDEIDLAIIVVPKRFVKDTLIQCGEKGVKGVVIITAGFGETGEEGKREEKELVEIAHKYGMRIIGPNCVGIMNTHVDLNATFITVAKKGNVAFISQSGALGAGIVYKTIKEDIGFSKFISVGNMADVDFAELMEYLADTEEDKAIALYIEGVRNGKKFMEVAKRVTKKKPIIALKAGKSESGARAASSHTGSLAGSWKIYEAAFKQSGVLVANTIDEMLSMARAFSQPLPRGNKVAIMTNAGGPGVLTADELDKRGLKLATLEEKTIEELRSFLPPMAAVKNPVDMIASARGEDYYRTAKLLLQDPNVDMLIAICVVPTFAGMTLTEHAEGIIRAVKEVNNEKPVLAMFMAGYVSEKAKELLEKNGIPTYERPEDVASAAYALVEQAKNVGILEVE”, the “soluble on expression in E. coli” value is recorded as “soluble”.
With “MLEARDLYCERDERTLFRGLSFTVDAGEWVQVTGGNGAGKTTLLRLLTGLARPDGGEVYWQGEPLRRVRDSFHRSLLWIGHQPGIKTRLTARENLHFFHPGDGARLPEALAQAGLAGFEDVPVAQLSAGQQRRVALARLWLTRAALWVLDEPFTAIDVNGVARLTRRMAAHTAQGGMVILTTHQPLPGAADTVRRLALTGGGAGL” the entry was “not soluble”.
With “MLEHGGRLREAARRYDIPLADWLDLSTGIAPWPFSLPAIPEQAWTRLPESDDGLEAAACLYYGAERVLPLAGSQAAIQALPRMRRGGRVGVLSPCYAEHAHAWRQAGHLVREIGEAEVEPYLDSLDVLLVVNPNNPTGRVFEPAELLAWHARLQRRGGWLLVDEAFMDCTPQSSLAACSNRPGLIVLRSFGKFFGLAGARLGFALGERPLLQALAEQLGPWTVNGPVRHVAQSALRDRQQQRQQRERLLAASQRLEELLRRHGWPPAGGSALFQRLVDPRCAALHDYLARRGILTRQFEQPASLRLGLPADEAAWARLDAALLGFKEPAHE”, the “soluble on expression in E. coli” value is given as “not soluble”.
With “MLEKLWPFGRSRVRKAVEEALEKAFQDVGEVLEPLSELSEHEDHYLLRVEVPGLGPENLEVRLEGDQLVIEGEKREEKRAKHLAEIVYGRIYRAYLLPKDAKKEGIEARLAKGVLEVRIPREKRPEEPPVRIPIQES” the entry was “soluble”; with “MLERHDRLETLRKLKELQERIAELAYLLTGEEPAAWTPRVDLLETEEHYVLLVDLPGVRPEDLELLEEGQRVTLAGVRHPLPGTYLLEERPMGTFRRTLDLPGPIEEGTAQATLRNGVLEVRFRKRPATALPLKEA”, “soluble”.
With “MLESVHQASAYTADVQPADVVIVGAGAAGLAAAHHLTRAGLTTAVLEAAPNVGGRMSTEKVDGFRLDRMGQLLSTAYPELRSTPGLDALPLREFSPGVLVHSDGHLHRVGEPGTPRSARGALTAARALASAPRQQRTPRAPRTQGASRPGLLGSPVGQSRLAGALARLAATPPDRLLSRPELPAARALSALGLPPRTIDGFLRPLLAALLCDPALETSSRCADLALRAFVTGRLCVPEGGADVLPELLAATLPPGTVHTGVRVTAVSTTSVTTKDHGELRCRAVLLATGARAAARLLPGLRVPGFHPVTVLHHTTDEPPLGDPALVLDAERGGPVAHTAVISRVDPSRAPAGRALVSSTVLGTPPPPDRLEAAVRAQLARLYRTSTARWELLAIHHDSEAVPAMPPPHDPRRPVRLLAGLYICGDHRDTSTVQGALRSGRRAAHALLTDVGAGQTSLEEPLETAALEHHHHHH” the entry was “not soluble”; with “MLEVREVEKSFKKKKVLKGGSLSVNKGEIVGLLGPNGAGKTTLFNSIIGFISVDKGKVLLDGEDVTHLPPFKRAQKGLAFLPQEHTLFEDLTVLENLLIFLEFFTDSKEEAITKAEALLEDFGLLELKDQKAYALSGGQKRRLEIARSLITTPKYVLLDEPFAGLDPIIVSEIREIVKNLKNNGIGVLITDHNVRETIKMVDRVYIISEGKVLAHGKPEEVVNNEAVRKTYLGVDFKL”, “soluble”.
Consider “MLFDTHAHLNAVQYEEDLEQVIERARDEGVSHIVVVGFDRPTIDRAIELAERYPFIYAAVGWHPVDAIEMTDDDLQMIEQLAAHPKVVALGEMGLDYHWDKSPKDVQQEVFRQQIRLAKKVKLPIIIHNREATADILKILQEENAAEVGGIMHCFSGSVEVAKQCMDMNFLISLGGPVTFKNAKKPKEVAKEIPLSHLLIETDCPYLTPHPFRGKRNEPSYVKYVAEAIAQIKNISFAEVAETTAENAKKLFAIDR”, for which the “soluble on expression in E. coli” value is “not soluble”.
The entry for “MLFKRPDTETLYFALVNKDPAYEGVAYVCVTSTKIFCRFTCTARKPKIENCRFRETITECLEAGFRPCKRCKPMLSYGTPDGTVTALLTALENEPARRWREEDVVALGHDPSTVRRSFKRRFGMSFLEIARLRRVGDAAESLASGEAVIGAQIDAGYESGSGFRSAINQLFGTSPAAMKGRGFLKGDWIDTPIGPMLAVADDHALHLLEFADRPALPAELKRLKARTGADMVLGRTAVTGQIAAELAAYFAGRSGSFETRLAGHGTPFERDVWRNLREIPAGEIVSYSSLATAMERPTAVRAVARANGANQLAIVVPCHRVLGADGSLTGYGGGLWRKKWLIEHERRMARGLEHHHHHH” is “soluble”.
On to “MLFTIEQLELIKKLQHTGMSSDQLLKAFGELEVPEQLQNNNTIAAALYSPLLVQHLTTPKSETPVKLTVQTVPTPVKSEPQSSNCSSPFEHPICSNAPRPIRSQRTPMKEITTLDDPNELEEFMKQGEEACILDMKTFITQYSLRQTTVAMMTGVSQPYISKLLNGNHRELSLRCRKNIYCWYLNCRRHPNKLAAFLADPTTRLETNGDGELIPQRRERYVFRPILIRMLESFFTQTPFPDLPRRVEIANACNHVLKMDKKGVGLMPKEVVSPQVVSNWFANKRKELRRRSAEASAASTSSASSSASSTANHDSVSVSSMSPRDEETSSRNTTPETAISPSPAVSTFEVSRPSAIISATSSTTSPISIPATIIPSVSPSALELFAMAQQLGVQLPVPFPTLPTHFFPFQMAPFYGNPASILKSE”, for which the “soluble on expression in E. coli” value is on record as “not soluble”.
For the sequence “MLGAMFRAGTPMPPNLNSQGGGHYFIDRDGKAFRHILNFLRLGRLDLPRGYGETALLRAEADFYQIRPLLDALRELEASQGTPAPTAALLHADVDVSPRLVHFSARRGPHHYELSSVQVDTFRANLFCTDSECLGALRARFGVASGDRAEGSPHFHLEWAPRPVELPEVEYGRLGLQPLWTGGPGERREVVGTPSFLEEVLRVALEHGFRLDSVFPDPEDLLNSRSLRFVRH”, the “soluble on expression in E. coli” value is “soluble”.
On to “MLGERIMSKLSKGIKDQASGLRNLSRNKPVKVIAVSAGKGGVGKSNISVNLAIALSQLNYSVMLLDADLGLANVDIMLGLHTKYNLSHVLQGICHLSDIILHGPAGVRVIPAASGTEFMTQLSPAEHAGIIDSFNELTDDLDYMIIDTAAGISETVLSFTRSSQELIVVVCDEPTSLTDAYALIKVMSKRYEWTHFHILANMVRNVKDGRDLFNKLFRVSGQFLDVQLDYLGAIPFDENIHKSVKKQNPILIAYPDSPAAHALRELAESVSNWSFKPSLGGNTSFFLERLVAGQF”, for which the “soluble on expression in E. coli” value is “not soluble”.
With “MLGLLRRLFDNNEREIARYYKQVVEPVNRLEAEVEKLPDLAAAYRELKEKHEKGASLDELLPMAFALTRESAKRYLGMRHFDVQLIGGAVLHEGKIAEMKTGEGKTLVATLAVALNALTGKGVHVVTVNDYLARRDAEWMGPVYRGLGLSVGVIQHASTPAERRKAYLADVTYVTNSELGFDYLRDNMAISPDQLVLRHDHPLHYAIIDEVDSILIDEARTPLIISGPAEKATDLYYKMAEIAKKLERGLPAEPGVRKEPTGDYTVEEKNRSVHLTLQGIAKAEKLLGIEGLFSPENMELAHMLIQAIRAKELYHRDRDYIVQDGQVIIVDEFTGRLMPGRRYGEGLHQAIEAKEGVRIERENQTLATITYQNFFRLYEKRAGMTGTAKTEEKEFQEIYGMDVVVVPTNRPVIRKDFPDVVYRTEKGKFYAVVEEIAEKYERGQPVLVGTISIEKSERLSQMLKEPRLYLPRLEMRLELFKKASQKQQGPEWERLRKLLERPAQLKDEDLAPFEGLIPPKGNLRTAWEGLKRAVHTLAVLRQGIPHQVLNAKHHAREAEIVAQAGRSKTVTIATNMAGRGTDIKLGGNPEYLAAALLEKEGFDRYEWKVELFIKKMVAGKEEEARALAQELGIREELLERIREIREECKQDEERVRALGGLFIIGTERHESRRIDNQLRGRAGRQGDPGGSRFYVSFDDDLMRLFASDRVIAMLDRMGFDDSEPIEHPMVTRSIERAQKRVEDRNFAIRKQLLQFDDVLSRQREVIYAQRRLILLGKDEEVKEAAIGMVEETVASLAENFLNPEVHPEDWDLEGLKATLLDTAPQLQDFPFAELRALKAEEAVERLVEAALKAYEAREAELSPPLMRAVERFVILNVVDNAWKEHLHNLDVLRQGIFLRGYGQKDPFQEYKIEATRLFNEMVAFIKSEVAKFLFRLKVEAEPVRPVREAPYVPVPEAKPEPSEVFGVERKRATPPPQPGLSRAERRRLMRQEKKRKK” the entry was “soluble”; with “MLHVAGRIEDYALIGDMQIAALVCQDGTVDWLCLPRFDSHAVFAGLLGTEEHGFWRLGPAHASDAEPPRASRRTYRGDSLILESEWDTPRGTVRVTDFMPPRDGAPQLIRIVEGVTGRVPMRSALRMRFSYGLEHHHHHH”, “not soluble”.
With “MLIEMWSPVFKKHGEIREPICFHHGLNVIMGMDLADNSIGKSSSLLAIDFIFGGNSYLKSIAVKKLGDHPIYFCFQFEKKFYFSRDTANPDIILVCDKSYSPTGETMDLGIFLNKLKKRYHLDSPELSFRLAMSGFFRIAGKSNQNTDFPLQVYSSQKSSESITTLIQLFNLYDNIARYKERLKDKSDQLTTFRNARRYAFISNLVGGKKQFEANVSEIKRLEYDLAHLQDTHQDKIDSDDI”, the “soluble on expression in E. coli” value is recorded as “not soluble”.
The entry for “MLIGIDVGGTTTDAVLIRNGEVYSTAKVPTEPGDLLKSLLGALDEVSRGVPPEQFERVVFSTTVITNLIAEGKTERVALLLIPGPGVNPASYVFPDSFCIKGAMDYRGREIQPIDEEEVRGTVSRIRDQGFLRVAVVSKFGQRNPSHELRIEEIIREMH” is “not soluble”; for “MLIHMKSRKMNLNKLEDGGSWFSRLKQFLQGEPQNQEELVSLLRDAQIRSLINSETLAMIEGAILFSKMRVRDIMLPKNQMVCINKDDDFKHIISIVTQTGHSRFPVTGENSDEVVGILHAKDLLKYQPENMESFDLLDICRQVTFVPESRRLDSLLSEFRSNRNHMAIVVDEYGEVSGFVTIEDIIEQIIGDIEDEFDIDEDAYIKTHEGHCYIIKAHTPIEEFNEQLNADFSDETYDTIGGIVLNKFGYLPQRGEVIIIDDFEFKVLNADSRRIKLLECLDKRSPEKLNSTVEG” it is “not soluble”; for “MLIISNAVHLPDHEIELNAIRAQGAGGQNVNKVSSAVHLRFDIQASSLPPFYKERLLALNDQRISGDGVVVIKAQQYRTQEQNREDALERLAELIRSVAKVQKARRPTKPTRGSQKRRLDGKAKRGAVKAGRGKVDFLEHHHHHH” it is “not soluble”.
The entry for “MLINEYRPGAGIGWHRDKPHFEDVAGISLLAPCSFRLRRKSGDRWERRTIVVEPRSAYLMTGPSRTEWEHSIPPLAEHRYSITLRTLRSQNPLEHHHHHH” is “not soluble”.
Turning to “MLIVKTLVIIPTYNEAENIRPLVEDILDRYPEGLELLVIDDSSPDGTAGIVKAIMKNEPRVMLLSRPSKLGLGTAYLTGFRYALERGYERVIEMDADFSHDPASIASLIKAMDGADMVIGSRYMNNTVNVVNWPLSRLILSKSASIYSRWITGMPVSDPTSGFKCISAKALRFIALDRVRSQGYSFQIEIDFRVWKKNLVIHEVPIIFVDRSVGKSKMTRKNIVEAVWMVWWLKFLSIIGRLLEHHHHHH”, the “soluble on expression in E. coli” value was “not soluble”.
